± gives the standard error. Variants at the floor of the assay were thinned out.
B1: glmS ribozyme (parent)
chain: AUAAAAGCGCCAGAACUACAGAAAUGUAGUUGACGAGGAGGAGGUUUAUCGAAUUUUCGGCGGAUGCCUCCAAA

Assays:
Details in all cases: with glucosamine-6-phosphate
glucosamine-6-phosphate [1] = variants of: B1; assay: self-cleavage kobs at 40 uM GlcN6P; higher = faster cleavage; RNA array
Outline: (§1)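 Tracking of barcoded ribozyme variants used a hybridised Cy3 probe at 37 °C, after in situ transcription by E. coli RNA polymerase on sequenced MiSeq chips. The flowed solution held 40 μM to 10 mM glucosamine-6-phosphate in HEPES/KCl/Mg(OAc)2 buffer, and imaging ran over ~14 h. kobs was taken from exponential decay fits of normalised per-tile medians, and kcat and KM from weighted Michaelis–Menten fits.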

glucosamine-6-phosphate [2] = variants of: B1; assay: self-cleavage kobs at 2500 uM GlcN6P; higher = faster cleavage; RNA array
Outline: as §1

glucosamine-6-phosphate [3] = variants of: B1; assay: self-cleavage kobs at 640 uM GlcN6P; higher = faster cleavage; RNA array
Outline: as §1

glucosamine-6-phosphate [4] = variants of: B1; assay: self-cleavage kobs at 10000 uM GlcN6P; higher = faster cleavage; RNA array
Outline: as §1

glucosamine-6-phosphate [5] = variants of: B1; assay: self-cleavage kobs at 160 uM GlcN6P; higher = faster cleavage; RNA array
Outline: as §1

| Variant | self-cleavage kobs at 40 uM GlcN6P (glucosamine-6-phosphate [1]) | self-cleavage kobs at 2500 uM GlcN6P (glucosamine-6-phosphate [2]) | self-cleavage kobs at 640 uM GlcN6P (glucosamine-6-phosphate [3]) | self-cleavage kobs at 10000 uM GlcN6P (glucosamine-6-phosphate [4]) | self-cleavage kobs at 160 uM GlcN6P (glucosamine-6-phosphate [5]) |
| --- | --- | --- | --- | --- | --- |
| A6U A15C G32A G63C A64U | < 1e-05 s⁻¹ | – | – | – | – |
| C61U C68U C70A | < 1e-05 s⁻¹ | < 1e-05 s⁻¹ | – | – | – |
| A15U G29C G43C | < 1e-05 s⁻¹ | – | – | – | – |
| A14G G38U C50U | < 1e-05 s⁻¹ | – | – | – | – |
| G13C G35C A39U | < 1e-05 s⁻¹ | – | – | – | – |
| U47G C68U | 4.04e-05 ± 8.8e-06 s⁻¹ | 0.0005 ± 0.00011 s⁻¹ | 0.000601 ± 0.00012 s⁻¹ | 0.0017 ± 0.00029 s⁻¹ | – |
| U47G C67A | 0.000123 ± 1.8e-05 s⁻¹ | 0.000691 ± 0.00014 s⁻¹ | 0.000788 ± 0.00013 s⁻¹ | 0.00198 ± 0.00048 s⁻¹ | 0.000171 ± 3.2e-05 s⁻¹ |
| C16A G37C | < 1e-05 s⁻¹ | – | – | – | – |
| A36U C68G C70U | 8.4e-05 ± 2.2e-05 s⁻¹ | – | – | 0.000213 ± 4.7e-05 s⁻¹ | – |
| C16U A36G | < 1e-05 s⁻¹ | – | < 1e-05 s⁻¹ | – | < 1e-05 s⁻¹ |
| C68A C70A | < 1e-05 s⁻¹ | – | – | – | – |
| G51C C61U | < 1e-05 s⁻¹ | – | – | – | – |
| A33U G38A G41C U54G | < 1e-05 s⁻¹ | – | – | – | – |
| G7C C10A A52C | < 1e-05 s⁻¹ | – | – | < 1e-05 s⁻¹ | – |
| G51U A53G A64G U65G | < 1e-05 s⁻¹ | – | – | < 1e-05 s⁻¹ | – |
| A12U G29U | 0.000958 ± 0.00022 s⁻¹ | – | – | 0.019 ± 0.0045 s⁻¹ | – |
| C11U G51U | < 1e-05 s⁻¹ | < 1e-05 s⁻¹ | < 1e-05 s⁻¹ | < 1e-05 s⁻¹ | < 1e-05 s⁻¹ |
| C11U G51A | < 1e-05 s⁻¹ | < 1e-05 s⁻¹ | – | – | – |
| A14U C34A G35C U45A C67U | < 1e-05 s⁻¹ | – | – | – | – |
| G37U G62A | < 1e-05 s⁻¹ | – | – | – | < 1e-05 s⁻¹ |
| A6G U31A G32U | < 1e-05 s⁻¹ | < 1e-05 s⁻¹ | < 1e-05 s⁻¹ | < 1e-05 s⁻¹ | < 1e-05 s⁻¹ |
| C34G G44C | < 1e-05 s⁻¹ | < 1e-05 s⁻¹ | < 1e-05 s⁻¹ | < 1e-05 s⁻¹ | – |
| G7C C16G A52G | < 1e-05 s⁻¹ | – | < 1e-05 s⁻¹ | < 1e-05 s⁻¹ | – |
| U47G C70G C71G | 8.97e-05 ± 2.5e-05 s⁻¹ | – | – | – | – |

| Variant | self-cleavage kobs at 40 uM GlcN6P (glucosamine-6-phosphate [1]) | self-cleavage kobs at 2500 uM GlcN6P (glucosamine-6-phosphate [2]) | self-cleavage kobs at 640 uM GlcN6P (glucosamine-6-phosphate [3]) | self-cleavage kobs at 10000 uM GlcN6P (glucosamine-6-phosphate [4]) | self-cleavage kobs at 160 uM GlcN6P (glucosamine-6-phosphate [5]) |
| --- | --- | --- | --- | --- | --- |
| A48C G59U | < 1e-05 s⁻¹ | < 1e-05 s⁻¹ | < 1e-05 s⁻¹ | < 1e-05 s⁻¹ | < 1e-05 s⁻¹ |
| A6G C16G G66C | < 1e-05 s⁻¹ | – | – | – | – |
| G41U C70G | 0.00157 ± 0.00018 s⁻¹ | 0.00944 ± 0.0019 s⁻¹ | 0.00612 ± 0.00092 s⁻¹ | 0.0513 ± 0.014 s⁻¹ | 0.00262 ± 0.00038 s⁻¹ |
| A15G C50A | < 1e-05 s⁻¹ | – | – | 3.83e-05 ± 1.4e-05 s⁻¹ | – |
| G13U C61U | < 1e-05 s⁻¹ | – | < 1e-05 s⁻¹ | < 1e-05 s⁻¹ | < 1e-05 s⁻¹ |
| G44A C50G U55A | < 1e-05 s⁻¹ | < 1e-05 s⁻¹ | < 1e-05 s⁻¹ | – | – |
| G43C A64G | < 1e-05 s⁻¹ | < 1e-05 s⁻¹ | < 1e-05 s⁻¹ | < 1e-05 s⁻¹ | < 1e-05 s⁻¹ |
| U30C A42C | < 1e-05 s⁻¹ | < 1e-05 s⁻¹ | – | < 1e-05 s⁻¹ | < 1e-05 s⁻¹ |
| A48C A64U | < 1e-05 s⁻¹ | – | < 1e-05 s⁻¹ | – | < 1e-05 s⁻¹ |
| A12G G59A | < 1e-05 s⁻¹ | – | – | 2.34e-05 ± 1.1e-05 s⁻¹ | < 1e-05 s⁻¹ |
| G66C C68A | < 1e-05 s⁻¹ | 5.93e-05 ± 2.7e-05 s⁻¹ | 0.000128 ± 5.4e-05 s⁻¹ | – | – |
| G43U U54A | < 1e-05 s⁻¹ | – | – | 6.37e-05 ± 2e-05 s⁻¹ | – |
| G9A G43C | < 1e-05 s⁻¹ | – | – | – | – |
| C34A G44U | < 1e-05 s⁻¹ | < 1e-05 s⁻¹ | < 1e-05 s⁻¹ | < 1e-05 s⁻¹ | < 1e-05 s⁻¹ |
| G60U G63U | < 1e-05 s⁻¹ | – | < 1e-05 s⁻¹ | < 1e-05 s⁻¹ | < 1e-05 s⁻¹ |
| G60U G63A | < 1e-05 s⁻¹ | – | – | – | < 1e-05 s⁻¹ |
| C11U U30C C50U | < 1e-05 s⁻¹ | – | – | < 1e-05 s⁻¹ | – |
| C8A A53U | < 1e-05 s⁻¹ | < 1e-05 s⁻¹ | < 1e-05 s⁻¹ | < 1e-05 s⁻¹ | < 1e-05 s⁻¹ |
| A14U C34U | < 1e-05 s⁻¹ | < 1e-05 s⁻¹ | < 1e-05 s⁻¹ | < 1e-05 s⁻¹ | < 1e-05 s⁻¹ |
| G9C U31G | < 1e-05 s⁻¹ | < 1e-05 s⁻¹ | < 1e-05 s⁻¹ | – | < 1e-05 s⁻¹ |
| G29A C34U | < 1e-05 s⁻¹ | – | – | – | – |
| U31C G44U U56C | < 1e-05 s⁻¹ | – | – | – | – |
| G9A A39U G44A U55C | < 1e-05 s⁻¹ | – | – | < 1e-05 s⁻¹ | – |
| G32U G63A C67U | < 1e-05 s⁻¹ | < 1e-05 s⁻¹ | – | < 1e-05 s⁻¹ | – |
